Data: the supplement of paper PMC9233669
Fewer inactive variants are shown than the library holds.

What was measured:
[1] = test system: biotinyl-Leu-oxazolone; test: self-aminoacylation, catalytic enhancement (BLO) (fold over background); higher = more active; k-Seq, kA / k0A0; sequences stand for … in GGGAAUGGAUCCACAUCUACGAAUUC…UUCACUGCAGACUUGACGAAGCUG
Summary of the method: (§1)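 Mutagenized RNA pools (0.43 μM; 21-nt variable region) were treated with 2–1250 μM of each biotinyl-aminoacyl-oxazolone. Conditions were 50 μL HEPES/NaCl/KCl/MgCl2/CaCl2 buffer, 5% acetonitrile, pH 6.9–7.0, room temperature, 90 minutes. Catalytic enhancement, the median kA relative to the uncatalyzed rate, was derived from streptavidin capture, qPCR and Illumina sequencing.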

[2] = test system: biotinyl-Ile-oxazolone; test: self-aminoacylation, catalytic enhancement (BIO) (fold over background); higher = more active; k-Seq, kA / k0A0; sequences stand for … in GGGAAUGGAUCCACAUCUACGAAUUC…UUCACUGCAGACUUGACGAAGCUG
Summary of the method: as §1

[3] = test system: biotinyl-Met-oxazolone; test: self-aminoacylation, catalytic enhancement (BMO) (fold over background); higher = more active; k-Seq, kA / k0A0; sequences stand for … in GGGAAUGGAUCCACAUCUACGAAUUC…UUCACUGCAGACUUGACGAAGCUG
Summary of the method: as §1

[4] = test system: biotinyl-Val-oxazolone; test: self-aminoacylation, catalytic enhancement (BVO) (fold over background); higher = more active; k-Seq, kA / k0A0; sequences stand for … in GGGAAUGGAUCCACAUCUACGAAUUC…UUCACUGCAGACUUGACGAAGCUG
Summary of the method: as §1

[5] = test system: biotinyl-Phe-oxazolone; test: self-aminoacylation, catalytic enhancement (BFO) (fold over background); higher = more active; k-Seq, kA / k0A0; sequences stand for … in GGGAAUGGAUCCACAUCUACGAAUUC…UUCACUGCAGACUUGACGAAGCUG
Summary of the method: as §1

[6] = test system: biotinyl-Trp-oxazolone; test: self-aminoacylation, catalytic enhancement (BWO) (fold over background); higher = more active; k-Seq, kA / k0A0; sequences stand for … in GGGAAUGGAUCCACAUCUACGAAUUC…UUCACUGCAGACUUGACGAAGCUG
Summary of the method: as §1

Row | Sequence | self-aminoacylation [1] | self-aminoacylation [2] | self-aminoacylation [3] | self-aminoacylation [4] | self-aminoacylation [5] | self-aminoacylation [6]
1 | CCACACGUCAAGCAAUCAGUC [Fam1B.1 aminoacylation ribozyme variant] | 0.713 | 0.647 | 0.665 | 0.88 | 0.738 | 0.482
2 | CUACUUCACACAAGCGGUCUG [Fam1A.1 aminoacylation ribozyme variant] | 0.817 | 1.03 | 0.816 | 0.993 | 0.75 | 1.01
3 | AAGUUUCCUAAUAUUCGCAAG [Fam3.1 aminoacylation ribozyme variant] | 0.935 | 0.935 | 0.987 | 0.841 | 0.549 | 0.649
4 | AUUUCCAUGGUCAUCGAGUGA [Fam2.1 aminoacylation ribozyme variant] | 9.67 | 5.22 | 9.56 | 5.09 | 52.5 | 12
5 | CUACUUCAAUCAAUGGGUCUG [Fam1A.1 aminoacylation ribozyme variant] | 0.912 | 0.889 | 0.801 | 0.809 | 0.579 | 0.627
6 | AUUGCCCUGGUCAUCGAGAGA [Fam2.1 aminoacylation ribozyme variant] | 1.5 | 1.2 | 1.39 | 1.2 | 1.73 | 0.807
7 | AUUAGCCUGGUCAUCGGGUGA [Fam2.1 aminoacylation ribozyme variant] | 13.3 | 6.74 | 10.1 | 7.06 | 94.3 | 13.4
8 | CUACUGCCAACAAUCGGUCUG [Fam1A.1 aminoacylation ribozyme variant] | 0.64 | 0.744 | 0.773 | 0.744 | 0.775 | 0.531
9 | AAGUGUGCUAAUUGUCGCAAG [Fam3.1 aminoacylation ribozyme variant] | 1.51 | 1.5 | 1.45 | 1.49 | 1.56 | 2.65
10 | AAGUUUGCAAAUAGUCGCAAG [Fam3.1 aminoacylation ribozyme variant] | 0.665 | 0.763 | 0.734 | 0.752 | 1.03 | 0.789
11 | CUACUUCGAACAAACGGUCUG [Fam1A.1 aminoacylation ribozyme variant] | 0.535 | 0.709 | 0.664 | 0.805 | 0.51 | 0.619
12 | AAGAUUGCAAAUAGUCGCAAG [Fam3.1 aminoacylation ribozyme variant] | 1.58 | 1.43 | 1.27 | 1.29 | 1.38 | 2.48
13 | CAACACUUAAAGCAAUCGGUC [Fam1B.1 aminoacylation ribozyme variant] | 0.82 | 1.12 | 0.98 | 0.909 | 0.828 | 0.79
14 | AUUCACCCAGGUCAUCGCGUG [Fam2.2 aminoacylation ribozyme variant] | 19.4 | 8.24 | 16 | 8.43 | 123 | 13
15 | AUUCACCCAGGUCAUCCGGUG [Fam2.2 aminoacylation ribozyme variant] | 12.7 | 6.38 | 8.64 | 6.29 | 90.7 | 8.51
16 | AUUACACUGGACAUCGAGUGA [Fam2.1 aminoacylation ribozyme variant] | 6.11 | 3.23 | 5.83 | 2.87 | 14.9 | 6.45
17 | CCACACUUCAUGCAAUAGGUC [Fam1B.1 aminoacylation ribozyme variant] | 0.637 | 0.711 | 0.582 | 0.834 | 1.03 | 0.467
18 | ACUCACCUAGGUCAUCGAGUG [Fam2.2 aminoacylation ribozyme variant] | 4.67 | 2.85 | 3.27 | 2.86 | 7.77 | 2.72
19 | AUUCACGUAAGUCAUCGGGUG [Fam2.2 aminoacylation ribozyme variant] | 20.4 | 9.9 | 18.3 | 10.4 | 148 | 13.3
20 | AGUCACCUAGGACAUCGGGUG [Fam2.2 aminoacylation ribozyme variant] | 4.11 | 4.13 | 4.24 | 5.02 | 26.6 | 6.31
21 | CUAUUUCAAACAAUCGGUCUG [Fam1A.1 aminoacylation ribozyme variant] | 0.838 | 0.819 | 0.789 | 0.781 | 8.5 | 4.39
22 | AUACACCUAUGUCAUCGGGUG [Fam2.2 aminoacylation ribozyme variant] | 3.86 | 2.46 | 3.42 | 2.52 | 17.3 | 3.58
23 | UCACAUUUCAAGCAAUCGGUC [Fam1B.1 aminoacylation ribozyme variant] | 0.847 | 1.04 | 0.73 | 1.07 | 2.47 | 1.56
24 | AUUACACCGGUCAUCGAGUGA [Fam2.1 aminoacylation ribozyme variant] | 6.36 | 2.95 | 5.76 | 2.96 | 29.4 | 5.95
25 | AUUCACCUAGGUCAGCGGGUG [Fam2.2 aminoacylation ribozyme variant] | 5.95 | 3.3 | 4.39 | 3.2 | 29.1 | 4.21
26 | AAGAUUGCUAAUAGUCGAAAG [Fam3.1 aminoacylation ribozyme variant] | 0.966 | 1.28 | 1.03 | 0.945 | 2.96 | 1.34
